Columns and labels:
[1] = molecular target: T1, human RYK on the surface of human tumor cell lines (human, UniProt P34925 46-607); experiment: flow cytometry, REH cells (ALL), 5 ug/ml 2-D11-Alexa647; line unmarked (no staining)
T1 construct: whole, on cells; Endogenous expression
Experimental: (§1) Table 1 provides the flow cytometry data on various cancer cell lines stained with fluorochrome-conjugated 2-D11, as depicted in FIG. 8. The name of each cell line is listed in the first column and the tissue of origin is listed in the second column. Binding of the 2-D11 mAb to human RYK was assessed by flow cytometric staining and analysis by staining on ice for 20 minutes with 5 μg/ml of 2-D11 anti-human RYK-Alexa647 conjugated mAb or equal amounts of isotype matched control mAb, washed, and analyzed. The median fluorescence intensity (MFI) of 2-D11 stained cells is listed in the middle column and the MFI of isotype control stained cells are listed in the in the adjacent column. Cell lines were scored as “++”, “+”, or neg (unmarked with “+”) lines based on the ratio of median fluorescence intensity (MFI) of stained cells relative to the MFI of isotype control stained cells (MFIR).
(§2) The name of each cell line is listed in the first column and the tissue of origin is listed in the second column. Binding of the 2-D11 mAb to human RYK was assessed by flow cytometric staining and analysis by staining on ice for 20 minutes with 5 μg/ml of 2-D11 anti-human RYK-Alexa647 conjugated mAb or equal amounts of isotype matched control mAb, washed and analyzed. […]

[2] = molecular target: T1, human RYK on the surface of human tumor …; experiment: flow cytometry, A673 cells (Ewings sarcoma), 5 ug/ml 2-D11-Alexa647
Experimental: as §1, §2

[3] = molecular target: T1, human RYK on the surface of human tumor …; experiment: flow cytometry, HELA cells (ovarian as printed), 5 ug/ml 2-D11-Alexa647; line unmarked (no staining)
Experimental: as §1, §2

[4] = molecular target: T1, human RYK on the surface of human tumor …; experiment: flow cytometry, NCI H226 cells (lung), 5 ug/ml 2-D11-Alexa647
Experimental: as §1, §2

[5] = molecular target: T1, human RYK on the surface of human tumor …; experiment: flow cytometry, HS683 cells (brain), 5 ug/ml 2-D11-Alexa647
Experimental: as §1, §2

[6] = molecular target: T1, human RYK on the surface of human tumor …; experiment: flow cytometry, CAPAN-2 cells (pancreas), 5 ug/ml 2-D11-Alexa647; line unmarked (no staining)
Experimental: as §1, §2

[7] = molecular target: T1, human RYK on the surface of human tumor …; experiment: flow cytometry, SW620 cells (colon), 5 ug/ml 2-D11-Alexa647; line unmarked (no staining)
Experimental: as §1, §2

[8] = molecular target: T1, human RYK on the surface of human tumor …; experiment: flow cytometry, EW36 cells (NHL), 5 ug/ml 2-D11-Alexa647; line unmarked (no staining)
Experimental: as §1, §2

[9] = molecular target: T1, human RYK on the surface of human tumor …; experiment: flow cytometry, MINO cells (mantle), 5 ug/ml 2-D11-Alexa647
Experimental: as §1, §2

[10] = molecular target: T1, human RYK on the surface of human tumor …; experiment: flow cytometry, U937 cells (monocyte cancer), 5 ug/ml 2-D11-Alexa647; line unmarked (no staining)
Experimental: as §1, §2

[11] = molecular target: T1, human RYK on the surface of human tumor …; experiment: flow cytometry, HT29 cells (colon), 5 ug/ml 2-D11-Alexa647
Experimental: as §1, §2

[12] = molecular target: T1, human RYK on the surface of human tumor …; experiment: flow cytometry, NALM6 cells (ALL), 5 ug/ml 2-D11-Alexa647; line unmarked (no staining)
Experimental: as §1, §2

[13] = molecular target: T1, human RYK on the surface of human tumor …; experiment: flow cytometry, MCF7 cells (breast), 5 ug/ml 2-D11-Alexa647; line unmarked (no staining)
Experimental: as §1, §2

[14] = molecular target: T1, human RYK on the surface of human tumor …; experiment: flow cytometry, A549 cells (lung), 5 ug/ml 2-D11-Alexa647
Experimental: as §1, §2

[15] = molecular target: T1, human RYK on the surface of human tumor …; experiment: flow cytometry, HS-578T cells (breast), 5 ug/ml 2-D11-Alexa647
Experimental: as §1, §2

[16] = molecular target: T1, human RYK on the surface of human tumor …; experiment: flow cytometry, NCI H1155 cells (lung), 5 ug/ml 2-D11-Alexa647; line unmarked (no staining)
Experimental: as §1, §2

[17] = molecular target: T1, human RYK on the surface of human tumor …; experiment: flow cytometry, COLO 829 cells (melanoma), 5 ug/ml 2-D11-Alexa647
Experimental: as §1, §2

[18] = molecular target: T1, human RYK on the surface of human tumor …; experiment: flow cytometry, RAMOS cells (Burkitt NHL), 5 ug/ml 2-D11-Alexa647; line unmarked (no staining)
Experimental: as §1, §2

[19] = molecular target: T1, human RYK on the surface of human tumor …; experiment: flow cytometry, JURKAT cells (T-cell ALL), 5 ug/ml 2-D11-Alexa647; line unmarked (no staining)
Experimental: as §1, §2

[20] = molecular target: T1, human RYK on the surface of human tumor …; experiment: flow cytometry, OVCAR4 cells (ovarian), 5 ug/ml 2-D11-Alexa647
Experimental: as §1, §2

T1 sequence (P34925 46-607 limits assumed, form in doubt): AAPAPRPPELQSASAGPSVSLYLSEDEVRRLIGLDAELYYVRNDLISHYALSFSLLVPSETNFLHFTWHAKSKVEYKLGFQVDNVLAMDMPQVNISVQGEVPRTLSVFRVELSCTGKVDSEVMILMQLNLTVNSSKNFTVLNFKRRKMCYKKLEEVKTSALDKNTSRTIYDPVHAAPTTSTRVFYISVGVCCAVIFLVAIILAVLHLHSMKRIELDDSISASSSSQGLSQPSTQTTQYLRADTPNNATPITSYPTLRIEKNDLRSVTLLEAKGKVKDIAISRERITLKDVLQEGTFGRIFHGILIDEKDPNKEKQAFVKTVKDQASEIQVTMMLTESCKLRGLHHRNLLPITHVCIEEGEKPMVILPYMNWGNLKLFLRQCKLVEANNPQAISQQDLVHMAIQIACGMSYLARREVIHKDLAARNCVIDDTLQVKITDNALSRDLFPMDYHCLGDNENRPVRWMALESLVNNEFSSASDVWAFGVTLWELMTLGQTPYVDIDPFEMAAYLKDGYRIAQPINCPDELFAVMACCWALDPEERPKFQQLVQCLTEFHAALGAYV

B1: 2-D11 anti-human RYK mAb (antibody, V domains shown)
VH: QVQLKESGPGLVAPSQSLSITCSVSGFSLNDYGVNWVRQPPGKDLEWLGMIWGDGVTEYNSTLKSRLSISKDNSKSQVFLKMNNLQTEDTARYYCVRQGSGVWFAHWGQGTLVSVSS
VL: DVLVTQTPLSLPVSLGDQASISCRSSQTIVHSNGNTYLEWYLQKPGQSPKLLIYKVSNRFSGVPDRFSGSGSGTDFTLKISRVEAEDLGIYYCFQGSHVPYTFGGGTKLEIK
notes: Mouse hybridoma mAb, kappa light chain, detected with anti-mouse IgG; also called mAb 2-D11; 2-D11 anti-human RYK-Alexa647 conjugated mAb
With B1 the “MFIR (MFI ratio to isotype control)” value [1] was 1, the “MFIR (MFI ratio to isotype control)” value [2] was 1.5 and the “MFIR (MFI ratio to isotype control)” value [3] was 1.1. The “MFIR (MFI ratio to isotype control)” value [4] was 2, the “MFIR (MFI ratio to isotype control)” value [5] was 2.5 and the “MFIR (MFI ratio to isotype control)” value [6] was 1.3. The “MFIR (MFI ratio to isotype control)” value [7] was 1.2, the “MFIR (MFI ratio to isotype control)” value [8] was 1.1 and the “MFIR (MFI ratio to isotype control)” value [9] was 2. For the same binder, the “MFIR (MFI ratio to isotype control)” value [10] was 1.2, the “MFIR (MFI ratio to isotype control)” value [11] was 2.2 and the “MFIR (MFI ratio to isotype control)” value [12] was 1.3. The “MFIR (MFI ratio to isotype control)” value [13] was 1.4, the “MFIR (MFI ratio to isotype control)” value [14] was 1.5 and the “MFIR (MFI ratio to isotype control)” value [15] was 2.7. The “MFIR (MFI ratio to isotype control)” value [16] was 1.3, the “MFIR (MFI ratio to isotype control)” value [17] was 2.3 and the “MFIR (MFI ratio to isotype control)” value [18] was 1.1. The “MFIR (MFI ratio to isotype control)” value [19] was 1.1 and the “MFIR (MFI ratio to isotype control)” value [20] was 2.1.

Source: patent US20250027945A1 (University of California, published 2025)
